Measurements from patent US7041498 (SALK INSTITUTE FOR BIOLOGICAL STUDIES, dated 2006).

B1: VP16 transactivation domain linked to the LBD of mouse PPARα (VP-PPAR155-468) (other)
chain: YCRFHKCLSVGMSHNAIRFGRMPRSEKAKLKAEILTCEHDLKDSETADLKSLGKRIHEAYLKNFNMNKVKARVILAGKTSNNPPFVIHDMETLCMAEKTLVAKMVANGVEDKEAEVRFFHCCQCMSVETVTELTEFAKAIPGFANLDLNDQVTLLKYGVYEAIFTMLSSLMNKDGMLIAYGNGFITREFLKNLRKPFCDIMEPKFDFAMKFNALELDDSDISLFVAAIICCGDRPGLLNIGYIEKLQEGIVHVLKLHLQSNHPDDTFLFPKLLQKMVDLRQLVTEHAQLVQVIKKTESDAALHPLLQEIYRDMY
notes: range 155-468; Two-hybrid prey expressed in CV-1 cells
B2: VP16 transactivation domain linked to the LBD of VDR (VP-VDR92-427) (other)
chain: EFILTDEEVQRKREMILKRKEEEALKDSLRPKLSEEQQRIIAILLDAHHKTYDPTYSDFCQFRPPVRVNDGGGSHPSRPNSRHTPSFSGDSSSSCSDHCITSSDMMDSSSFSNLDLSEEDSDDPSVTLELSQLSMLPHLADLVSYSIQKVIGFAKMIPGFRDLTSEDQIVLLKSSAIEVIMLRSNESFTMDDMSWTCGNQDYKYRVSDVTKAGHSLELIEPLIKFQVGLKKLNLHEEEHVLLMAICIVSPDRPGVQDAALIEAIQDRLSNTLQTYIRCRHPPPGSHLLYAKMIQKLADLRSLNEEHSKQYRCLSFQPECSMKLTPLVLEVFGNEIS
notes: range 92-427
B3: VP16 transactivation domain linked to the LBD of RARα (VP-RAR156-462) (other)
chain: ESVRNDRNKKKKEVPKPECSESYTLTPEVGELIEKVRKAHQETFPALCQLGKYTTNNSSEQRVSLDIDLWDKFSELSTKCIIKTVEFAKQLPGFTTLTIADQITLLKAACLDILILRICTRYTPEQDTMTFSDGLTLNRTQMHNAGFGPLTDLVFAFANQLLPLEMDDAETGLLSAICLICGDRQDLEQPDRVDMLQEPLLEALKVYVRKRRPSRPHMFPKMLMKITDLRSISAKGAERVITLKMEIPGSMPPLIQEMLENSEGLDTLSGQPGGGGRDGGGLAPPPGSCSPSLSPSSNRSSPATHSP
notes: range 156-462

What follows are binders tested against T1, GAL4 linked to the FAR ligand binding domain (GAL4-FAR184-469) (yeast; rat, UniProt P04386 1-147) (assay: mammalian two-hybrid in CV-1 cells, GAL4 UAS luciferase reporter).
T1 construct: range 1-147; Two-hybrid bait expressed in CV-1 cells from a CMV promoter vector; also called GAL4-FAR chimera; FAR LBD
B1: no binding.
B2: no binding.
B3: no binding.
